Assay results as given in the supplement of paper PMC7877785.
± gives the uncertainty stated by the source.

Assay: self-splicing fitness, log relative to wild type (ln ratio); higher = more splicing; Tetrahymena group I intron in knt gene, E. coli kanamycin selection, DiMSum; sequences stand for … in CUCUCU…GGAGGGAAAAGUUAUCAGGCAUGCACCUGGUAGCUAGUCUUUAAACCAAUAGAUUGCAUCGGUUUAAAAGGCAAGACCGUCAAAUUGCGGGAAAGGGGUCAACAGCCGUUCAGUACCAAGUCUCAGGGGAAACUUUGAGAUGGCCUUGCAAAGGGUAUGGUAAUAAGCUGACGGACAUGGUCCUAACCACGCAGCCAAGUCCUAAGUCAACAGAUCUUCUGUUGAUAUGGAUGCAGUUCACAGACUAAAUGUCGGUCGGGGAAGAUGUAUUCUUCUCAUAAGAUAUAGUCGGACCUCUCCUUAAUGGGAGCUAGCGGAUGAAGUGAUGCAACACUGGAGCCGCUGGGAACUAAUUUGUAUGCGAAAGUAUAUUGAUUAGUUUUGGAGUACUCGUGGUCG
Summary of the method: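 Pooled colonies went to amplicon sequencing on an Illumina HiSeq 2500 after six replicate transformations. The plates were LB agar with 100 μg/mL carbenicillin, 50 μM IPTG and 0.2% rhamnose, with or without 25 μg/mL kanamycin, incubated overnight at 37°C or 30°C. The E. coli BL21(DE3) library had all eight P1ex-region intron nucleotides randomised, the intron placed in the knt kanamycin-resistance gene on pET-22b(+). DiMSum fitness is the error-weighted combination of replicate fold changes, kanamycin against none, normalised to wild type.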

GACUAGCAAUAUUACGGUCA
self-splicing fitness (ln) (30 °C): -1.13 ± 0.27
self-splicing fitness (ln) (37 °C): -1.36 ± 0.26

AAUAAGCAAUAUUACGUUGA
self-splicing fitness (ln) (30 °C): -2.96 ± 0.22
self-splicing fitness (ln) (37 °C): -2.62 ± 0.2

GCUUAGCAAUAUUACGCGGA
self-splicing fitness (ln) (30 °C): -1.32 ± 0.071
self-splicing fitness (ln) (37 °C): -0.345 ± 0.071

GUGUAGCAAUAUUACGUUAU
self-splicing fitness (ln) (30 °C): -2.81 ± 0.16
self-splicing fitness (ln) (37 °C): -2.41 ± 0.2

AGUCAGCAAUAUUACGACAG
self-splicing fitness (ln) (30 °C): -0.781 ± 0.12
self-splicing fitness (ln) (37 °C): -0.399 ± 0.14

UCCUAGCAAUAUUACGAGGG
self-splicing fitness (ln) (30 °C): -2.97 ± 0.25
self-splicing fitness (ln) (37 °C): -2.7 ± 0.45

UCUGAGCAAUAUUACGCGAU
self-splicing fitness (ln) (30 °C): -3.14 ± 0.27
self-splicing fitness (ln) (37 °C): -3.02 ± 0.25

GACUAGCAAUAUUACGUUUG
self-splicing fitness (ln) (30 °C): -2.63 ± 0.13
self-splicing fitness (ln) (37 °C): -2.46 ± 0.2

UCCCAGCAAUAUUACGCCUG
self-splicing fitness (ln) (30 °C): -3.13 ± 0.26
self-splicing fitness (ln) (37 °C): -1.8 ± 0.23

CUAAAGCAAUAUUACGAGGA
self-splicing fitness (ln) (30 °C): -4.32 ± 0.29
self-splicing fitness (ln) (37 °C): -1.62 ± 0.27

GCAGAGCAAUAUUACGAUGC
self-splicing fitness (ln) (30 °C): -4.01 ± 0.32
self-splicing fitness (ln) (37 °C): -1.99 ± 0.18

GAUGAGCAAUAUUACGCGGC
self-splicing fitness (ln) (37 °C): -2.77 ± 0.38

CAGAAGCAAUAUUACGGACC
self-splicing fitness (ln) (30 °C): -3.56 ± 0.48
self-splicing fitness (ln) (37 °C): -2.5 ± 0.46

ACUGAGCAAUAUUACGUACU
self-splicing fitness (ln) (30 °C): -2.16 ± 0.19
self-splicing fitness (ln) (37 °C): -1.42 ± 0.19

GGCGAGCAAUAUUACGGGUA
self-splicing fitness (ln) (30 °C): -3.42 ± 0.26
self-splicing fitness (ln) (37 °C): -2.79 ± 0.2

GUUUAGCAAUAUUACGUUAU
self-splicing fitness (ln) (30 °C): -2.88 ± 0.23
self-splicing fitness (ln) (37 °C): -0.357 ± 0.16

AGCAAGCAAUAUUACGUUAG
self-splicing fitness (ln) (30 °C): -2.96 ± 0.17
self-splicing fitness (ln) (37 °C): -2.24 ± 0.22

UCGAAGCAAUAUUACGAUCU
self-splicing fitness (ln) (30 °C): -2.67 ± 0.21
self-splicing fitness (ln) (37 °C): -2.44 ± 0.27

CCCGAGCAAUAUUACGCGAA
self-splicing fitness (ln) (37 °C): -3.31 ± 0.21

CCUGAGCAAUAUUACGAUUA
self-splicing fitness (ln) (37 °C): -2.35 ± 0.33

UAAGAGCAAUAUUACGGUUU
self-splicing fitness (ln) (30 °C): -3.48 ± 0.24
self-splicing fitness (ln) (37 °C): -1.85 ± 0.23

AUUAAGCAAUAUUACGAGCU
self-splicing fitness (ln) (30 °C): -0.659 ± 0.14
self-splicing fitness (ln) (37 °C): -0.821 ± 0.2

CUUCAGCAAUAUUACGUUAC
self-splicing fitness (ln) (30 °C): -3.35 ± 0.28
self-splicing fitness (ln) (37 °C): -2.27 ± 0.27

UCUCAGCAAUAUUACGGAGC
self-splicing fitness (ln) (30 °C): -2.1 ± 0.47
self-splicing fitness (ln) (37 °C): -2.27 ± 0.47

CUCGAGCAAUAUUACGAAAC
self-splicing fitness (ln) (30 °C): -3.52 ± 0.33
self-splicing fitness (ln) (37 °C): -1.99 ± 0.33

UCGGAGCAAUAUUACGUCCA
self-splicing fitness (ln) (30 °C): -2.06 ± 0.48
self-splicing fitness (ln) (37 °C): -0.639 ± 0.37

GUAUAGCAAUAUUACGUUAG
self-splicing fitness (ln) (30 °C): -2.87 ± 0.21
self-splicing fitness (ln) (37 °C): -1.07 ± 0.22

CGGCAGCAAUAUUACGUGGU
self-splicing fitness (ln) (30 °C): -4.44 ± 0.25
self-splicing fitness (ln) (37 °C): -1.93 ± 0.12

CCGCAGCAAUAUUACGGCGA
self-splicing fitness (ln) (30 °C): -1.15 ± 0.084
self-splicing fitness (ln) (37 °C): -0.544 ± 0.085

UCUUAGCAAUAUUACGUGCA
self-splicing fitness (ln) (30 °C): -1.95 ± 0.12
self-splicing fitness (ln) (37 °C): -1.07 ± 0.095

AGUCAGCAAUAUUACGUGGA
self-splicing fitness (ln) (30 °C): -2.73 ± 0.19
self-splicing fitness (ln) (37 °C): -2.41 ± 0.15

UCGCAGCAAUAUUACGCAAG
self-splicing fitness (ln) (30 °C): -3.01 ± 0.17
self-splicing fitness (ln) (37 °C): -1.69 ± 0.25

CUUUAGCAAUAUUACGGUUG
self-splicing fitness (ln) (30 °C): -0.918 ± 0.083
self-splicing fitness (ln) (37 °C): -0.666 ± 0.099

CAUCAGCAAUAUUACGGUCU
self-splicing fitness (ln) (30 °C): -2.82 ± 0.1
self-splicing fitness (ln) (37 °C): -2.22 ± 0.15

UACGAGCAAUAUUACGUUUG
self-splicing fitness (ln) (30 °C): -3.84 ± 0.27
self-splicing fitness (ln) (37 °C): -1.94 ± 0.17

CUCGAGCAAUAUUACGGAUG
self-splicing fitness (ln) (30 °C): -2.21 ± 0.13
self-splicing fitness (ln) (37 °C): -1.46 ± 0.17

AUCCAGCAAUAUUACGAGAG
self-splicing fitness (ln) (30 °C): -1.45 ± 0.098
self-splicing fitness (ln) (37 °C): -1.05 ± 0.1

CAUCAGCAAUAUUACGUCAC
self-splicing fitness (ln) (30 °C): -3.06 ± 0.15
self-splicing fitness (ln) (37 °C): -2.68 ± 0.23

ACGGAGCAAUAUUACGUUAU
self-splicing fitness (ln) (37 °C): -2.94 ± 0.23
